Data reported in patent US20230183352A1 (published 2023).
Where a chain is given by its changes, count along the chain named. Where two headings read alike, the source gives them in different places. Each block holds one binder with its values, some of them ahead of it.

Key:
[1] = target: T1, Claudin 18.2 (CLDN18.2), expressed on CHOS-CLDN 18.2 / HEK293-CLDN 18.2 / HCC827-CLDN 18.2 cells (human, UniProt P56856-2 1-261); test: FACS, MFI on CHOS-CLDN18.2 over MFI on CHOS-CLDN18.1, 10 µg/ml
T1 construct: whole, on cells; The species is not repeated for the CHOS-CLDN 18.2 cells; also called claudin-18A2
Experimental: (§1) The initial concentration of the antibody was 20 μg/mkit was diluted at 1:4, and incubated at 4° C. for 60 min.

[2] = target: T1, Claudin 18.2 (CLDN18.2), expressed on …; test: FACS, CHOS-CLDN18.2 cells, 0.020 µg/ml
Experimental: (§2) The initial concentration of the antibody was 20 μg/ml, it was diluted at 1:4, and incubated at 4° C. for 60 min.

[3] = target: T1, Claudin 18.2 (CLDN18.2), expressed on …; test: FACS, CHOS-CLDN18.2 cells, 0.313 µg/ml
Experimental: as §2

[4] = target: T1, Claudin 18.2 (CLDN18.2), expressed on …; test: FACS, CHOS-CLDN18.2 cells, 1.250 µg/ml
Experimental: as §2

[5] = target: T1, Claudin 18.2 (CLDN18.2), expressed on …; test: FACS, CHOS-CLDN18.2 cells
Experimental: as §2

[6] = target: T1, Claudin 18.2 (CLDN18.2), expressed on …; test: FACS, CHOS-CLDN18.2 cells, 20 µg/ml
Experimental: as §2

[7] = target: T1, Claudin 18.2 (CLDN18.2), expressed on …; test: FACS, CHOS-CLDN18.2 cells, 0.005 µg/ml
Experimental: as §2

[8] = target: T1, Claudin 18.2 (CLDN18.2), expressed on …; test: FACS, CHOS-CLDN18.2 cells, 10 µg/ml
Experimental: as §1

[9] = target: T1, Claudin 18.2 (CLDN18.2), expressed on …; test: FACS, CHOS-CLDN18.2 cells, 0.078 µg/ml
Experimental: as §2

[10] = target: T1, Claudin 18.2 (CLDN18.2), expressed on …; test: FACS, CHOS-CLDN18.2 cells, 0 µg/ml (background)
Experimental: as §2

[11] = target: T1, Claudin 18.2 (CLDN18.2), expressed on …; test: FACS, CHOS-CLDN18.2 cells, 5 µg/ml
Experimental: as §2

[12] = target: T1, Claudin 18.2 (CLDN18.2), expressed on …; test: FACS, CHOS-CLDN18.2 cells, 0.020 µg/ml; remark: listed apart in the source
Experimental: as §2

[13] = target: T1, Claudin 18.2 (CLDN18.2), expressed on …; test: FACS, CHOS-CLDN18.2 cells; remark: listed apart in the source
Experimental: as §2

[14] = target: T1, Claudin 18.2 (CLDN18.2), expressed on …; test: FACS, CHOS-CLDN18.2 cells, 0 µg/ml (background); remark: listed apart in the source
Experimental: as §2

[15] = target: T1, Claudin 18.2 (CLDN18.2), expressed on …; test: FACS, CHOS-CLDN18.2 cells, 1.250 µg/ml; remark: listed apart in the source
Experimental: as §2

[16] = target: T1, Claudin 18.2 (CLDN18.2), expressed on …; test: FACS, CHOS-CLDN18.2 cells, 20 µg/ml; remark: listed apart in the source
Experimental: as §2

[17] = target: T1, Claudin 18.2 (CLDN18.2), expressed on …; test: FACS, CHOS-CLDN18.2 cells, 5 µg/ml; remark: listed apart in the source
Experimental: as §2

[18] = target: T1, Claudin 18.2 (CLDN18.2), expressed on …; test: FACS, CHOS-CLDN18.2 cells, 0.313 µg/ml; remark: listed apart in the source
Experimental: as §2

[19] = target: T1, Claudin 18.2 (CLDN18.2), expressed on …; test: FACS, CHOS-CLDN18.2 cells, 0.005 µg/ml; remark: listed apart in the source
Experimental: as §2

[20] = target: T1, Claudin 18.2 (CLDN18.2), expressed on …; test: FACS, CHOS-CLDN18.2 cells, 0.078 µg/ml; remark: listed apart in the source
Experimental: as §2

B1: QP14441441 (antibody, human IgG1, kappa, V domains shown)
VH: QVQLVQSGAEVKKPGASVKVSCKASGYAFSSYWMNWVRQAPGQGLEWIGQIYPGNGDTTYNGKFKGRVTMTADKSTSTVYMELSSLRSEDTAVYYCARFVKGNAMDYWGQGTLVTVSS
VL: DIVMTQSPDSLAVSLGERATISCKSSQSLLNSGNQKNYLTWYQQKPGQPPKLLIYWASTRESGVPDRFSGSGSGIDFTLTISSVQAEDVAVYYCQNAYSYPFTFGQGTKLEIKR
notes: Humanized from QP192193
CLDN18.2/CLDN18.1 (MFI ratio) [1]: 608
FACS reading [2]: 10100
FACS reading [3]: 74700
FACS reading [4]: 125000
EC50 [5]: 0.484 µg/mL
max [5]: 175000
FACS reading [6]: 175000
FACS reading [7]: 4230
MFI [8]: 693000
FACS reading [9]: 27300
FACS reading [10]: 732
FACS reading [11]: 151000

B2: QP14501448 (antibody, human IgG1, kappa, V domains shown)
VH: EVQLVESGGGLVQPGGSLRLSCAASGFTFSSFGMHWVRQAPGKGLEWVAYISSGSNSIYYVDTVKGRFTISRDNAKNSLYLQMNSLRDEDTAVYYCARNAYYGNSFDYWGQGTLVTVSS
VL: B1 VL with S69T, I75T, D76V, V84L, Y93F, A97N, S99Y, F102L, Q106G, L110V
notes: Humanized from QP199200
FACS reading [12]: 7460
CLDN18.2/CLDN18.1 (MFI ratio) [1]: 501
EC50 [13]: 0.498 µg/mL
max [13]: 149000
FACS reading [14]: 732
FACS reading [15]: 108000
FACS reading [16]: 117000
FACS reading [17]: 149000
FACS reading [18]: 45600
MFI [8]: 540000
FACS reading [19]: 2480
FACS reading [20]: 14200

B7: QP192193 (antibody, human IgG1, V domains shown)
VH: QVQLQQSGAELVRPGSSVKISCKASGYAFSSYWMNWVKQRPGQGLEWIGQIYPGNGDTTYNGKFKGQATLTADKSSSTVYMQLSSLTSEDSAVYFCARFVKGNAMDYWGQGTSVTVSS
VL: DIVMTQSPSSLTVTAGEKVTMSCKSSQSLLNSGNQKNYLTWYQQNPGQPPKMLIYWASTRESGVPDRFTGSGSGIDFSLTISSVQAEDLALYYCQNAYSYPFTFGSGTKLEIK
notes: Chimeric; also called 40F1; mouse-derived chimeric antibody QP192193
CLDN18.2/CLDN18.1 (MFI ratio) [1]: 627
FACS reading [2]: 11400
FACS reading [3]: 74600
FACS reading [4]: 168000
EC50 [5]: 0.361 µg/mL
max [5]: 177000
FACS reading [6]: 155000
FACS reading [7]: 3790
MFI [8]: 644000
FACS reading [9]: 27800
FACS reading [10]: 732
FACS reading [11]: 177000

Other lines, results leading:

FACS reading [12]: 6320
CLDN18.2/CLDN18.1 (MFI ratio) [1]: 487
EC50 [13]: 0.666 µg/mL
max [13]: 154000
FACS reading [14]: 732
FACS reading [15]: 132000
FACS reading [16]: 183000
FACS reading [17]: 154000
FACS reading [18]: 45100
MFI [8]: 484000
FACS reading [19]: 2410
FACS reading [20]: 19200
B3: QP14491448 (antibody, human IgG1, kappa, V domains shown)
VH: B2 VH with A49S
VL: B1 VL with S69T, I75T, D76V, V84L, Y93F, A97N, S99Y, F102L, Q106G, L110V
notes: Humanized from QP199200

CLDN18.2/CLDN18.1 (MFI ratio) [1]: 463
FACS reading [2]: 11100
FACS reading [3]: 82300
FACS reading [4]: 137000
EC50 [5]: 0.344 µg/mL
max [5]: 177000
FACS reading [6]: 177000
FACS reading [7]: 4790
MFI [8]: 653000
FACS reading [9]: 29800
FACS reading [10]: 732
FACS reading [11]: 138000
B4: QP14451442 (antibody, human IgG1, kappa, V domains shown)
VH: B1 VH with Y95F
VL: B1 VL with L52M
notes: Humanized from QP192193

FACS reading [12]: 6350
CLDN18.2/CLDN18.1 (MFI ratio) [1]: 510
EC50 [13]: 0.962 µg/mL
max [13]: 143000
FACS reading [14]: 732
FACS reading [15]: 96200
FACS reading [16]: 160000
FACS reading [17]: 143000
FACS reading [18]: 39500
MFI [8]: 505000
FACS reading [19]: 2330
FACS reading [20]: 13900
B5: QP14501446 (antibody, human IgG1, kappa, V domains shown)
VH: B2 VH
VL: B1 VL with S22N, I75T, V84L, A97N, S99Y, F102L, Q106G, L110V
notes: Humanized from QP199200

FACS reading [12]: 7520
CLDN18.2/CLDN18.1 (MFI ratio) [1]: 560
EC50 [13]: 1.19 µg/mL
max [13]: 165000
FACS reading [14]: 732
FACS reading [15]: 132000
FACS reading [16]: 218000
FACS reading [17]: 165000
FACS reading [18]: 50600
MFI [8]: 514000
FACS reading [19]: 2760
FACS reading [20]: 19900
B6: QP199200 (antibody, human IgG1, V domains shown)
VH: DVQLVESGGGLVQPGGSRKLSCAASGFTFSSFGMHWVRQAPEKGLEWVAYISSGSNSIYYVDTVKGRFTISRDNPKNTLFLQMTSLKSEDTAMYYCARNAYYGNSFDYWGQGTTLTVSS
VL: DIVMTQSPSSLTVTAGEKVTMSCKSSQSLLNSGNQKNYLTWYQQKPGQPPKLLIYWASTRESGVPDRFTGSGSGTVFTLTISSVQAEDLAVYFCQNNYYYPLTFGAGTKLELK
notes: Chimeric; also called 43C11; mouse-derived chimeric antibody QP199200
